# Experimental data as given in patent US20220363623A1, “IMAGING AND THERAPEUTIC COMPOSITIONS” (priority 2019, published 2022).
# *1 amine or outer side, *2 acyl side, *3 side chain or, on linkers, in order; H or OH if unused. Where a SMILES comes first, the peptide text is derived from it. Bridges are numbered along the chain shown (N, C = ends). Side-chain parts run from the residue outwards. [ ]: non-standard residue; d: D form. The star is where a group is joined. X1 = O=C([C@@H](Cc1ccccc1)N(c1c(NCCCCCN(O)[*:3])c(=O)c1=O)[*:1])[*:2]; X2 = CC(=O)N(O)CCCCCNC(=O)CCC(=O)N(O)CCCCCN*; Thr(ol) = C[C@@H](O)[C@H](N)CO; Suc = O=C(CCC(=O)[*:2])[*:1]
# Legend:
# in vivo [1] = experiment: in vivo; design: species or system mice; conditions: female, Balb/c nude, mouse, iv, total radioactivity
# Description: (§1) PET-CT imaging and Biodistribution of Octreotate/tide Tracers. Female Balb/c nude mice (age 9 weeks) were inoculated subcutaneously on the right flank with 3×10^6 AR42J cells in PBS:Matrigel (1:1). Mice were weighed and tumours measured twice weekly using electronic callipers. Tumour volume (mm^3) was calculated as length^2×width/2. 12 mice were assigned for imaging and biodistribution studies (tumour volumes: 170-550 mm^3). DFOSqTIDE (2.5 MBq) and DFOSqTATE (2.2 MBq) were administered intravenously by tail vein injection to mice on. At 1, 2, 4 and 18 hr post injection three mice were anaesthetised using isoflurane and placed on the imaging bed of a G8 PET/CT scanner (Perkin Elmer). A CT scan was performed which was immediately followed by a 10 min static PET scan. PET images were reconstructed using the maximal likelihood and expectation maximization (ML-EM) algorithm. PET images were analysed using VivoQuant (Invicro) and Tumour SUVmax, Tumour SUVmax/background average (TBR) and Tumour SUVmax/liver average (TLR) determined. After imaging at 18 hr mice were euthanised and selected tissues were excised, weighed and counted using a Capintec (Captus 4000e) gamma counter. A separate cohort of 3 mice was harvested at 1 hr post injection for biodistribution analysis. The data was analysed using GraphPad Prism 7 and differences between tracers analysed using a t-test. The high tumor uptake was confirmed by an ex vivo biodistribution study in the same mouse model where mice were injected with either ^68GaDFOSq-TIDE and ^68GaDFOSq-TATE (2-3 MBq, 1 μg, 0.5 nmol) and then euthanised at either 1 h or 2 h after administration. The amount of injected activity per gram of tissue (% IA/g) in the tumor and major organs was quantified (FIG. 16).
# in vivo [2] = experiment: in vivo; design: species or system mice; conditions: female, Balb/c nude, mouse, iv, total radioactivity; remark: listed apart in the source
# Description: as §1, with “t-test.” for “t-test. The high tumor uptake was confirmed by an ex vivo biodistribution study in the same mouse model where mice were injected with either ^68GaDFOSq-TIDE and ^68GaDFOSq-TATE (2-3 MBq, 1 μg, 0.5 nmol) and then euthanised at either 1 h or 2 h after administration. The amount of injected activity per gram of tissue (% IA/g) in the tumor and major organs was quantified (FIG. 16).”
# (§2) AR42J (rat pancreatic cancer cell line) tumour bearing Balb/c nude mice as described above were injected intravenously via tail vein injection with ^89ZrDFOSqTATE or ^89ZrDFOSqTIDE (2-3 MBq). At 1, 2, 4 and 18 h post-injection the mice were anaesthetised with isoflurane and imaged over 10 min. At 1 hr after injection of DFOSqTIDE and DFOSqTATE, uptake into kidney, tumour and liver was observed. Representative PET images of mice injected with DFOSqTIDE and DFOSqTATE are shown in FIG. 12 and quantitation of the tumour SUVmax for each radiotracer is summarised in FIG. 13a.
# (§3) ^68GaDFOSq-TIDE and ^68GaDFOSq-TATE tracers were injected (2-3 MBq, 1 μg, 0.5 nmol) intravenously via tail vein to AR42J (rat pancreatic cancer cell line) tumour bearing Balb/c nude mice. PET images were acquired at 1 and 2 h post-injection (FIGS. 15a and b). […] Quantification of the uptake in the images using Standard Uptake Value (SUVmax=radioactivity in a tissue/injected activity/BW) confirms the higher uptake for ^68GaDFOSq-TATE (1 h; SUVmax 1.8±0.2, compared to 1.21±0.20, FIG. 15c). The higher tumor uptake of ^68GaDFOSqTATE was also associated with a higher degree of tumor retention at 2 h post injection with only a 5% reduction in SUVmax whereas the tumor SUVmax for ^68GaDFOSqTIDE reduced by 30% ^68GaDFOSqTATE at 2 h post injection. Both tracers clear rapidly from the blood and there is low uptake in bone consistent with stable gallium-68 complexes as well as low uptake in muscle. Both tracers have significant uptake in the kidneys and bladder.
# [3] = system: AR42J (rat pancreatic cancer cell line) tumour; experiment: in vivo; design: species or system mice; conditions: mouse
# Description: as §1, with “t-test.” for “t-test. The high tumor uptake was confirmed by an ex vivo biodistribution study in the same mouse model where mice were injected with either ^68GaDFOSq-TIDE and ^68GaDFOSq-TATE (2-3 MBq, 1 μg, 0.5 nmol) and then euthanised at either 1 h or 2 h after administration. The amount of injected activity per gram of tissue (% IA/g) in the tumor and major organs was quantified (FIG. 16).”
# as §2, §3
# in vivo [4] = experiment: in vivo; design: species or system mice; conditions: male, mouse, iv, total radioactivity
# Description: PET-CT imaging and Biodistribution. Male Balb/c nude mice (age 8.5 weeks) or Male NSG mice (age 12 weeks) were inoculated subcutaneously on the right flank with 6×10^6 LNCap cells in PBS:Matrigel (1:1). Mice were weighed and tumours measured twice weekly using electronic callipers. Tumour volume (mm^3) was calculated as length×width×height×π/6. Mice were assigned for imaging and biodistribution studies (tumour volumes: 85-450 mm3). ^89Zr-DFOSq-PSMA tracers were then administered intravenously by tail vein injection to 6 mice. At 1, 2, 4 and 18 hr post injection three mice were anaesthetised using isoflurane and placed on the imaging bed of a G8 PET/CT scanner (Perkin Elmer). A CT scan was performed and followed immediately by a 10 min static PET scan. PET images were reconstructed using the maximal likelihood and expectation maximization (ML-EM) algorithm. PET Images were analysed using VivoQuant (Invicro) and Tumour SUVmax or Tumour SUVmax/background average (TBR) determined. After imaging at 18 hr mice were euthanised and selected tissues were excised, weighed and counted using a Capintec (Captus 4000e) gamma counter. A separate cohort of 3 mice was harvested at 1 hr post injection for biodistribution analysis as above. The data was analysed using GraphPad Prism 7 and differences between tracers analysed using a t-test.
# ^89Zr Labelled tracers: The ^89Zr radiolabelled PSMA tracers were injected intravenously via tail vein to LNCaP (human PSMA expressing prostate cancer cell line) tumour bearing mice. At 1, 2, 4 and 18 h post-injection the mice were anaesthetised with isoflurane and imaged over 10 min. The representative PET images of mice injected with ^89Zr radiolabelled PSMA tracers at 1 and 18 hr are shown in FIG. 1 and quantitation of the Tumour SUVmax for each tracer is shown in FIG. 2a. […] There was a trend for higher tumour SUVmax for (4) tracer compared to all other tracers at all time points. […] A comparison of tumour uptake values is shown in FIG. 2b and the tissue biodistribution data for the tracers at 1 and 18 hr is summarised in FIG. 3.
# ^68Ga Labelled tracers: Representative PET images of mice injected with ^68Ga(1) and ^68Ga(4) are shown in FIG. 4 and quantitation of the tumour SUVmax is shown in FIG. 5a. […] Tumour uptake of ^68Ga(4) was 1.6 and 1.8 fold higher than ^68Ga(1) at 1 and 2 hr p.i., respectively. This is consistent with the biodistribution results where tumour % ID/g for ^68Ga(4) was higher than ^68Ga(1) at 1 hr (10.8±1.3 vs 6.5±0.4) and at 2.5 hr (8.6±1.0 vs 4.1±0.5) p.i. […] (6.5±0.4% ID/g at 1 hr vs 4.1±0.5% ID/g at 2.5 hr). In contrast, there was no significant change in ^68Ga(4) tumour retention at 1 and 2.5 p.i. (10.8±1.3% ID/g vs […], FIG. 5b).
# DU145 cells = experiment: Tracer uptake in DU145 cells, a PSMA negative cell line; format: cell-based; conditions: 60 min, in words
# Description: Cell binding and internalization studies. LNCap cells (150,000/well) were plated in RPMI 1640 medium containing 10% FBS into wells of a 24 well plate pre-coated with 0.05% poly-L-lysine and incubated overnight at 37° C. and 5% CO2. The following day cells were washed twice with PBS and incubated for 1 hour at 37° C. in 1 mL per well internalisation buffer (MEM, 1% FBS). The buffer was then replaced with 1 ml per well of a warmed solution containing 0.5 μCi ^89Zr-DFOsq-PSMA tracers in internalisation buffer. Cells were incubated in triplicate for 5, 15, 30 or 60 min at 37° C. and 5% CO2. […] Total protein content was determined in this fraction using a BCA protein assay kit (Pierce). A Perkin Elmer 2480 Wizard automatic gamma counter was then used to measure Zr-89 radioactivity in unbound, surface bound and internalised fractions. Surface bound and internalised fractions were expressed as percentage of total added radioactivity per mg of protein. Non-specific membrane binding and internalisation was determined by incubating cells with the ^89Zr-DFOSq-PSMA tracers in the presence of excess (10 μM) PMPA. ^89Zr-DFOSq-PSMA tracers uptake at 60 min was also determined in DU145 cells (seeded at 125,000 cells/well), a PSMA negative cell line. The raw data was analysed using GraphPad Prism 7.
# LNCap cells = experiment: Cell binding and internalization studies in LNCap cells; format: cell-based, human
# Description: Cell binding and internalization studies. LNCap cells (150,000/well) were plated in RPMI 1640 medium containing 10% FBS into wells of a 24 well plate pre-coated with 0.05% poly-L-lysine and incubated overnight at 37° C. and 5% CO2. The following day cells were washed twice with PBS and incubated for 1 hour at 37° C. in 1 mL per well internalisation buffer (MEM, 1% FBS). The buffer was then replaced with 1 ml per well of a warmed solution containing 0.5 μCi ^89Zr-DFOsq-PSMA tracers in internalisation buffer. Cells were incubated in triplicate for 5, 15, 30 or 60 min at 37° C. and 5% CO2. At each time point, cells were washed twice with ice-cold PBS and the washes collected for counting (unbound fraction). Cells were then incubated twice for 10 min in saline containing 10 μM PMPA and each wash collected for counting (surface bound fraction). The cells were then solubilised in 1 M NaOH (internalised fraction). Total protein content was determined in this fraction using a BCA protein assay kit (Pierce). A Perkin Elmer 2480 Wizard automatic gamma counter was then used to measure Zr-89 radioactivity in unbound, surface bound and internalised fractions. Surface bound and internalised fractions were expressed as percentage of total added radioactivity per mg of protein. Non-specific membrane binding and internalisation was determined by incubating cells with the ^89Zr-DFOSq-PSMA tracers in the presence of excess (10 μM) PMPA. ^89Zr-DFOSq-PSMA tracers uptake at 60 min was also determined in DU145 cells (seeded at 125,000 cells/well), a PSMA negative cell line. The raw data was analysed using GraphPad Prism 7.
# [5] = system: AR42J (rat pancreatic cancer cell line) tumour; experiment: in vivo; design: species or system mice; conditions: female, Balb/c nude, mouse, iv, 18 h
# Description: as §1
# [6] = Tumour uptake % IA/g 1 h post injection
smiles,measurement,setting,value
"CC(=O)N(O)CCCCCNC(=O)CCC(=O)N(O)CCCCCNC(=O)CCC(=O)N(O)CCCCCNc1c(N[C@H](Cc2ccccc2)C(=O)N[C@H]2CSSC[C@@H](C(=O)N[C@H](C(=O)O)[C@@H](C)O)NC(=O)[C@H]([C@@H](C)O)NC(=O)[C@H](CCCCN)NC(=O)[C@@H](Cc3c[nH]c4ccccc34)NC(=O)[C@H](Cc3ccc(O)cc3)NC2=O)c(=O)c1=O (68Ga complex, metal not drawn) [^68GaDFOSqTATE] (H-[X1]([Suc-X2])CY[dW]KTCT-OH; disulfide 2-7)",tissue uptake at 2 h,in vivo [1]; Tumor uptake % ID/g 2 h post injection,9.22 ± 0.92 %ID/g
same,tissue uptake at 1 h,in vivo [1]; [6],9.8 ± 2.33 %ID/g
same,tissue uptake at 1 h,in vivo [1]; Uptake in the kidneys,16 ± 3.27 %ID/g
same,SUV at 1 h,in vivo [2],1.8 ± 0.2 SUV
same,Reduction in tumor SUVmax at 2 h post injection,[3],5%
"CC(=O)N(O)CCCCCNC(=O)CCC(=O)N(O)CCCCCNC(=O)CCC(=O)N(O)CCCCCNc1c(NCc2ccc(C(=O)NCCCCC(NC(=O)NC(CCC(=O)O)C(=O)O)C(=O)O)cc2)c(=O)c1=O (centres unmarked) [(1), DFOSq-PhPSMA ligand]",tissue uptake at 1 h,in vivo [4]; Tumour Uptake % ID/g 1 h pi,5.4 %ID/g
same,tissue uptake at 18 h,in vivo [4]; Tumour Uptake % ID/g 18 h pi,2.2 %ID/g
same,"Binding in DU145, PSMA negative cell line",DU145 cells,Minimal binding
same,Cell Uptake % AR/mg protein (60 min) internalized,"LNCap cells; 89Zr tracers, 60 min, 37° C.",7 % AR/mg protein
same,Internalised activity in the presence of excess PMPA,LNCap cells; excess (10 μM) PMPA,up to 5 % AR/mg protein
same,Surface binding,"LNCap cells; presence and absence of excess PMPA, all timepoints",2 % AR/mg protein
CC(=O)N(O)CCCCCNC(=O)CCC(=O)N(O)CCCCCNC(=O)CCC(=O)N(O)CCCCCNc1c(N[C@H](Cc2ccccc2)C(=O)N[C@H]2CSSC[C@@H](C(=O)N[C@H](CO)[C@@H](C)O)NC(=O)[C@H]([C@@H](C)O)NC(=O)[C@H](CCCCN)NC(=O)[C@@H](Cc3c[nH]c4ccccc34)NC(=O)[C@H](Cc3ccc(O)cc3)NC2=O)c(=O)c1=O [DFOSqTIDE] (H-[X1]([Suc-X2])CY[dW]KTC[Thr(ol)]; disulfide 2-7),tissue uptake at 1 h,in vivo [1]; Tumour Uptake % ID/g 1 h pi,3.4 ± 0.4 %ID/g
same,tissue uptake at 18 h,in vivo [1]; Tumour Uptake % ID/g 18 h pi,1.7 ± 0.1 %ID/g
same,Tumour Uptake % ID/g 18 h pi,[5],1.5±0.1 % ID/g
same,Tumour SUVmax Clearance %,[3],55%
"CC(=O)N(O)CCCCCNC(=O)CCC(=O)N(O)CCCCCNC(=O)CCC(=O)N(O)CCCCCNc1c(N[C@H](Cc2ccccc2)C(=O)N[C@H]2CSSC[C@@H](C(=O)N[C@H](CO)[C@@H](C)O)NC(=O)[C@H]([C@@H](C)O)NC(=O)[C@H](CCCCN)NC(=O)[C@@H](Cc3c[nH]c4ccccc34)NC(=O)[C@H](Cc3ccc(O)cc3)NC2=O)c(=O)c1=O (68Ga complex, metal not drawn) [^68GaDFOSqTIDE] (H-[X1]([Suc-X2])CY[dW]KTC[Thr(ol)]; disulfide 2-7)",tissue uptake at 1 h,in vivo [1]; [6],8.81 ± 1.03 %ID/g
same,tissue uptake at 2 h,in vivo [1]; Tumour uptake % IA/g 2 h post injection,4.4 ± 1.1 %ID/g
same,tissue uptake at 1 h,in vivo [1]; Uptake in the kidneys,37.6 ± 3.5 %ID/g
same,SUV at 1 h,in vivo [2],1.21 ± 0.2 SUV
same,Reduction in tumor SUVmax at 2 h post injection,[3],30%
